Test: yeast display, Sf9 membrane polyspecificity reagent, FACS + sequencing; frameworks hold sequencing errors
Outline: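 Nanobodies came from a synthetic yeast display library in Saccharomyces cerevisiae BJ5465, induced with galactose for 36–48 hours and stained for 1 hour at 4 °C with 10% biotinylated, detergent-solubilized Sf9 membrane reagent. Cells were enriched on streptavidin microbeads and then FACS-sorted, with low and high (top ~1%) gates set on anti-HA fluorescence for expression and streptavidin fluorescence for reagent binding. Each polyreactivity label reflects the gate a clone came from. Genes were amplified by colony PCR, sequenced by MiSeq 2 × 250 and filtered by CDR length.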

| Sequence | polyreactivity (PSR sort gate) |
| --- | --- |
| QVQLVESGGGLVQAGGSLRLSCAASGSIFAAYTMGWYRQAPGKERELVATISSGGSTYYADSVKGRFTISRDNAKNTVYLQMNSLKPEDTAVYYCAAVAYTYTEYEYWGQGTQVTVSS | low polyreactivity |
| QVQLVESGGGLVQAGGSLRLSCAASGSIFADNAKGWYRQAPGKEMDLVAAITWSGGSTYYADSVKGRFTISRDNAKNTVYLQMNSLKPEDTAVYYCNADDAVEYSYGGGTEFYYWGQGTQVTVSS | low polyreactivity |
| QVQLVESGGGLVQAGGSLRLSCAASGSIFADYAMGWSRQAPGKEREFVAAITRSGTSTYYADSVKGRFTISRDNAKNTVYLQMNSLKPEDTAVYYCAKTEVLLYLYTLDYWGQGTQVTVSS | low polyreactivity |
| QVQLVESGGGLVQAGGSLRLSCAASGSIFADYAMGWYRQAPGKERELVAVISRRGGTTYYADSVKGRFTISRDNAKNTVYLQMNSLKPEDTAVYYCAARRSFNEYDYWGQGTQVTVSS | high polyreactivity |
| QVQLVESGGGLVQAGGSLRLSCAASGSIFADYVMGWYRQAPGKERELVAAISRGGGRTYYADSVKGRFTISRDNAKNTVYLQMNSLKPEDTAVYYCAARGYPTNYDPGYTYDYWGQGTQVTVSS | high polyreactivity |
| QVQLVESGGGLVQAGGSLRLSCAASGSIFAGNAMGWYRQAPAKERELVAAISRRGGSTYYADSVKGRFTISRDNAKNTVYLQMNSLKPEDTAVSYCNALLRYAYHAAYGYWGQGTQVTVSS | high polyreactivity |
| QVQLVESGGGLVQAGGSLRLSCAASGSIFAGNAMGWYRQAPGKERELVAAISRRGGSTYYADSVKGRFTISRDNAKNTVYLQMNSLKPEDTAVYYCAAANWQRYYYWGQGTQVTVSS | high polyreactivity |
| QVQLVESGGGLVQAGGSLRLSCAASGSIFAGNAMGWYRQAPGKERELVAAISRRGGSTYYADSVKGRFTISRDNAKNTVYLQMNSLKPEDTAVYYCNALLRYAYHAAYGYWGQGTQVTVSS | high polyreactivity |
| QVQLVESGGGLVQAGGSLRLSCAASGSIFAGNTMGWYRQAPGKEREFVASIRSSSGSTYYADSVKGRFTISRDNAKNTVYLQMNSLKPEDTAVYYCAARVYHYREFWVNYWGHGTQVTVSS | high polyreactivity |
| QVQLVESGGGLVQAGGSLRLSCAASGSIFAGNVMGWYRQAPGKESELVAAISRRGGRTYYADSVKGRFTISRDNAKNTVYLQMNSLKPEDTAVYYCAARRDPVLGKSDYWGQGTQVTVSS | high polyreactivity |
| QVQLVESGGGLVQAGGSLRLSCAASGSIFAHYAMGGYRQAPGKERELVAAITRGGGTYYADSVKGRFTLSRDNAKNTVYLQMNSVKPEDTAVYYCARIYYVSIYRYDYWGQGTQVTVSS | high polyreactivity |
| QVQLVESGGGLVQAGGSLRLSCAASGSIFAINAMGWYRQAPGKERELVAAIRRRDGNTYYADSVKGRFTISRDNAKNSVYLQMNSLKPEDTAVYYCNTYSRRTSVIAYRYNYWGQGTQVTVSS | high polyreactivity |
| QVQLVESGGGLVQAGGSLRLSCAASGSIFAKNAMGWYRQAPGKERELVAAISRGGNSYYADSVKGRFTISRDNAKNPVYFPMNSLTPEDTAVYYCAADYYWYVWEYPTYWYEYWGQGTQVTVSS | high polyreactivity |
| QVQLVESGGGLVQAGGSLRLSCAASGSIFAKYAMGLYRQAPGKERELVAGITRGGSTYYADSVKGRFTISRDNAKNTVYLQMNSLKQEDTAVYYCAAKRHTSLYVYYYWGLGTQVTVSS | high polyreactivity |
| QVQLVESGGGLVQAGGSLRLSCAASGSIFAKYAMGWYRQAPGKERELVAAITGSGGSTYYADSVKGRFTISRDNAKNTVYLQMNSVKPEDTAVYYCAKRRPRYTYNYWGQGTQVTVSS | high polyreactivity |
| QVQLVESGGGLVQAGGSLRLSCAASGSIFALYAIGWYRQAPGKEREFVAAISYNGGSTYYADSVKGRFTISRDNAKNTVYLQMNSLKPEDTAVYYCNDVYYDSGVVGYYYWGQGTQVTVSS | high polyreactivity |

| Sequence | polyreactivity (PSR sort gate) |
| --- | --- |
| QVQLVESGGGLVQAGGSLRLSCAASGSIFALYAMGWYRQAPGKERELVAAISYRGGRTYYADSVKGRFTISRDNAKNTVYLQMNSLKPEDTAVYYCKAAYGTSYLYNSEFYAAFTYDYWGQGTQVTVSS | low polyreactivity |
| QVQLVESGGGLVQAGGSLRLSCAASGSIFAPNAMGWYRQAPGKERELVAAITLSGGSRYYADSVKGRFTISREIAMNNVYLQMNSLKPEDTAVYYCNADLLPADAPLWVTGGDYWGQGTQVTVSS | low polyreactivity |
| QVQLVESGGGLVQAGGSLRLSCAASGSIFAPYTMGWYRQAPGKERELVAAISSSGTSTYYADSVKGRFTISRDNAKNTVYLQMNSLKPEDTAVYYCAADWYYHYGYWGQGTQVTVSS | high polyreactivity |
| QVQLVESGGGLVQAGGSLRLSCAASGSIFARYAMGWYRQAPGKERELVAAINSTVSTNYADSVKGRFTISRDNAKNTVYLQMNSLKPEDTAVYYCAVDIVRGGRDSWGQGTLVTVSS | low polyreactivity |
| QVQLVESGGGLVQAGGSLRLSCAASGSIFARYAMGWYRQAPGKERELVAAITGRGGSTYYADSVKGRFTISRDNAKNTVYLHMNSLKPEDTAVYYCAPKDVRRTRGGSGDYWGQGTQVTVSS | high polyreactivity |
| QVQLVESGGGLVQAGGSLRLSCAASGSIFARYAMGWYRQAPGKERELVAAITRSGVSTYYADSVKGRFTISRDNAKNTVYLQMNSLKPEDTAVYNCNAYYPIRSTPYGYYYWGQGTQVTVSS | high polyreactivity |
| QVQLVESGGGLVQAGGSLRLSCAASGSIFASNAMGWYRQAPGKERELVAAITSSGRTKYADSVKGRFTISRDNAKNTVYFQMNSLKPEDTAVYYCAAVYYTYFGRYDYWGQGTQVTVSS | high polyreactivity |
| QVQLVESGGGLVQAGGSLRLSCAASGSIFASNAMGWYRQAPGTERELVAAIDTSGGSTYYADSVKGRFTISRDNAKNTVYLQMNSLKPEDTAVYYCNTDWRDEYYPRYRASKFDYWGQGTQVTVSS | low polyreactivity |
| QVQLVESGGGLVQAGGSLRLSCAASGSIFASYAMGRYRQAPGKERELVAAISRSGGSTYYADSVKGRFTISRDNAKNTVYLQMNSLKPEDTAVYYCATGKIREDDYWGQGTQVTVSS | high polyreactivity |
| QVQLVESGGGLVQAGGSLRLSCAASGSIFASYAMGWYRQAPGKERELVAAISWNGGSTYYADSVKGRFTISRDNAKNTVYFQMNSLKPEDTAVYYCAAVNRKSQLYGYWGQGTQVTVSS | high polyreactivity |
| QVQLVESGGGLVQAGGSLRLSCAASGSIFASYAMGWYRQAPGKERELVAAITYSGSRTYYADSVKGRFTISRDTAKNTVYLQMNSLKPEDTAVYYCNADYYWYPYEDDYWGQGTQETVSS | low polyreactivity |
| QVQLVESGGGLVQAGGSLRLSCAASGSIFASYVMGWYRQAPGKERELVAAISSSGASTYYADSVKGRFTISRDNAKNTVSLQMNSLKPEDTAVSYCATPYYRSYLGDYWGQGTQVTVSS | high polyreactivity |
| QVQLVESGGGLVQAGGSLRLSCAASGSIFATNAMGWYRQAPGKERELVASISSGGGSTYYADSVKGRFTISRDNAKNTVYLQMNSLKPEDTAVYYCARRIGHGSRPYWLETWRYPYDYWGQGTQVTVSS | low polyreactivity |
| QVQLVESGGGLVQAGGSLRLSCAASGSIFATNSMGWYRQAPGKERELVAAISRSGASTYYADSVKGRFTISRDNAKNTVYLQMNSLKPEDTAVYYCNKVLYRDAYHSYCFDYWGQGTQVTVSS | high polyreactivity |
| QVQLVESGGGLVQAGGSLRLSCAASGSIFATYAMGWYRQAPGKERELVAAISSSGSRTYYADSVKGRFTISRDNAKNTVYLQMNSLKPEDTAVYYCAKAYLSPYQYDYWGQGTQVTVSS | high polyreactivity |

From the nanobody polyreactivity screen of Harvey et al. (2022)
